Biological target: DN-IV quality control recombinant protein (produced by the company) (dengue virus)
Test: BLI, antibody on AMC sensor

Kd | koff | kon | Binder
3970 pM | 0.00019 s⁻¹ | 47800 M⁻¹ s⁻¹ | Mutation 1-23 (antibody, V domains shown) VH: EVQLQQPGPELVKPGASVKMSCKASGYTFTSYVIHWVRQKPGQGLEWIGYMNPYNDGLKYNEKFIGKAILTSDKSSSTAYMQLSSLTSEDSAVYYCTKEGLFYVFDYWGQGTSVTVSS VL: QIVLTQSPAIMSASPGEKVTMTCSATSSLSYMHWYQQKSGTSPKRWIYDSSKLASGVPVRFSGSGSGTSYSLTISSMEAEDAATYFCQQWRSDLPTFGAGTKLELKR
2850 pM | 0.000133 s⁻¹ | 46600 M⁻¹ s⁻¹ | Mutation 1-24 (antibody, V domains shown) VH: EVQLQQPGPELVKPGASVKMSCKASGYTFTSTVIHWVRQKPGQGLEWIGYMNPYNDGIKYNEKFIGKAILTSDKSSSTAYMQLSSLTSEDSAVYYCTREGLFYVMDYWGQGTSVTVSS VL: QIVLTQSPAIMSASPGEKVTMTCSATSSVSYMHWYQQKSGTSPKRWIYDTSKLASGVPVRFSGSGSGTSYSLTISSMEAEDAATYFCQYWRSDLPTFGAGTKLELKR
661 pM | 0.000252 s⁻¹ | 381000 M⁻¹ s⁻¹ | Mutation 1-35 (antibody, V domains shown) VH: EVQLQQPGPELVKPGASVKMSCKASGYTFTSYVIHWVRQKPGQGLEWIGYMNPYNDGLKYNEKFIGKAILTSDKSSSTAYMQLSSLTSEDSAVYYCTKEGLFYVMDYWGQGTSVTVSS VL: QIVLTQSPAIMSASPGEKVTMTCSATSSVSYMHWYQQKSGTSPKRWIYDSSKLASGVPVRFSGSGSGTSYSLTISSMEAEDAATYFCQWWRSDLPTFGAGTKLELKR
2920 pM | 0.00014 s⁻¹ | 47900 M⁻¹ s⁻¹ | Mutation 1-25 (antibody, V domains shown) VH: EVQLQQPGPELVKPGASVKMSCKASGYTFTSSVIHWVRQKPGQGLEWIGYMNPYNDGLKYNEKFIGKAILTSDKSSSTAYMQLSSLTSEDSAVYYCTREGLFYVFDYWGQGTSVTVSS VL: QIVLTQSPAIMSASPGEKVTMTCSATSSISYMHWYQQKSGTSPKRWIYDSSKLASGVPVRFSGSGSGTSYSLTISSMEAEDAATYFCQWWRSDLPTFGAGTKLELKR
3550 pM | 0.000149 s⁻¹ | 42000 M⁻¹ s⁻¹ | Mutation 1-27 (antibody, V domains shown) VH: EVQLQQPGPELVKPGASVKMSCKASGYTFTSTVIHWVRQKPGQGLEWIGYMNPYNDGLKYNEKFIGKAILTSDKSSSTAYMQLSSLTSEDSAVYYCTREGLFYVFDYWGQGTSVTVSS VL: QIVLTQSPAIMSASPGEKVTMTCSATSSVSYMHWYQQKSGTSPKRWIYDSSKLASGVPVRFSGSGSGTSYSLTISSMEAEDAATYFCQQWRSDLPTFGAGTKLELKR
493 pM | 0.000178 s⁻¹ | 361000 M⁻¹ s⁻¹ | Mutation 1-29 (antibody, V domains shown) VH: EVQLQQPGPELVKPGASVKMSCKASGYTFTSYVIHWVRQKPGQGLEWIGYMNPYNDGIKYNEKFIGKAILTSDKSSSTAYMQLSSLTSEDSAVYYCTREGLFYVFDYWGQGTSVTVSS VL: QIVLTQSPAIMSASPGEKVTMTCSATSSISYMHWYQQKSGTSPKRWIYDSSKLASGVPVRFSGSGSGTSYSLTISSMEAEDAATYFCQWWRSDLPTFGAGTKLELKR
579 pM | 0.00023 s⁻¹ | 397000 M⁻¹ s⁻¹ | Mutation 1-31 (antibody, V domains shown) VH: EVQLQQPGPELVKPGASVKMSCKASGYTFTSSVIHWVRQKPGQGLEWIGYMNPYNDGIKYNEKFIGKAILTSDKSSSTAYMQLSSLTSEDSAVYYCTREGLFYVFDYWGQGTSVTVSS VL: QIVLTQSPAIMSASPGEKVTMTCSATSSVSYMHWYQQKSGTSPKRWIYDSSKLASGVPVRFSGSGSGTSYSLTISSMEAEDAATYFCQWWRSDLPTFGAGTKLELKR
560 pM | 0.000276 s⁻¹ | 493000 M⁻¹ s⁻¹ | Mutation 1-33 (antibody, V domains shown) VH: EVQLQQPGPELVKPGASVKMSCKASGYTFTSTVIHWVRQKPGQGLEWIGYMNPYNDGLKYNEKFIGKAILTSDKSSSTAYMQLSSLTSEDSAVYYCTREGLFYVFDYWGQGTSVTVSS VL: QIVLTQSPAIMSASPGEKVTMTCSATSSISYMHWYQQKSGTSPKRWIYDSSKLASGVPVRFSGSGSGTSYSLTISSMEAEDAATYFCQWWRSDLPTFGAGTKLELKR
631 pM | 0.000221 s⁻¹ | 350000 M⁻¹ s⁻¹ | Mutation 1-32 (antibody, V domains shown) VH: EVQLQQPGPELVKPGASVKMSCKASGYTFTSYVIHWVRQKPGQGLEWIGYMNPYNDGIKYNEKFIGKAILTSDKSSSTAYMQLSSLTSEDSAVYYCTKEGLFYVMDYWGQGTSVTVSS VL: QIVLTQSPAIMSASPGEKVTMTCSATSSVSYMHWYQQKSGTSPKRWIYDTSKLASGVPVRFSGSGSGTSYSLTISSMEAEDAATYFCQQWRSDLPTFGAGTKLELKR
3610 pM | 0.000152 s⁻¹ | 42100 M⁻¹ s⁻¹ | Mutation 1-26 (antibody, V domains shown) VH: EVQLQQPGPELVKPGASVKMSCKASGYTFTSYVIHWVRQKPGQGLEWIGYMNPYNDGIKYNEKFIGKAILTSDKSSSTAYMQLSSLTSEDSAVYYCTREGLFYVMDYWGQGTSVTVSS VL: QIVLTQSPAIMSASPGEKVTMTCSATSSLSYMHWYQQKSGTSPKRWIYDTSKLASGVPVRFSGSGSGTSYSLTISSMEAEDAATYFCQWWRSDLPTFGAGTKLELKR
671 pM | 0.000261 s⁻¹ | 389000 M⁻¹ s⁻¹ | Mutation 1-40 (antibody, V domains shown) VH: EVQLQQPGPELVKPGASVKMSCKASGYTFTSSVIHWVRQKPGQGLEWIGYMNPYNDGLKYNEKFIGKAILTSDKSSSTAYMQLSSLTSEDSAVYYCTKEGLFYVFDYWGQGTSVTVSS VL: QIVLTQSPAIMSASPGEKVTMTCSATSSVSYMHWYQQKSGTSPKRWIYDTSKLASGVPVRFSGSGSGTSYSLTISSMEAEDAATYFCQYWRSDLPTFGAGTKLELKR
455 pM | 0.00016 s⁻¹ | 352000 M⁻¹ s⁻¹ | Mutation 1-41 (antibody, V domains shown) VH: EVQLQQPGPELVKPGASVKMSCKASGYTFTSYVIHWVRQKPGQGLEWIGYMNPYNDGIKYNEKFIGKAILTSDKSSSTAYMQLSSLTSEDSAVYYCTREGLFYVMDYWGQGTSVTVSS VL: QIVLTQSPAIMSASPGEKVTMTCSATSSISYMHWYQQKSGTSPKRWIYDSSKLASGVPVRFSGSGSGTSYSLTISSMEAEDAATYFCQWWRSDLPTFGAGTKLELKR
643 pM | 0.000292 s⁻¹ | 454000 M⁻¹ s⁻¹ | Mutation 1-38 (antibody, V domains shown) VH: EVQLQQPGPELVKPGASVKMSCKASGYTFTSYVIHWVRQKPGQGLEWIGYMNPYNDGLKYNEKFIGKAILTSDKSSSTAYMQLSSLTSEDSAVYYCTKEGLFYVMDYWGQGTSVTVSS VL: QIVLTQSPAIMSASPGEKVTMTCSATSSISYMHWYQQKSGTSPKRWIYDSSKLASGVPVRFSGSGSGTSYSLTISSMEAEDAATYFCQWWRSDLPTFGAGTKLELKR
657 pM | 0.000282 s⁻¹ | 429000 M⁻¹ s⁻¹ | Mutation 1-36 (antibody, V domains shown) VH: EVQLQQPGPELVKPGASVKMSCKASGYTFTSTVIHWVRQKPGQGLEWIGYMNPYNDGLKYNEKFIGKAILTSDKSSSTAYMQLSSLTSEDSAVYYCTREGLFYVFDYWGQGTSVTVSS VL: QIVLTQSPAIMSASPGEKVTMTCSATSSLSYMHWYQQKSGTSPKRWIYDSSKLASGVPVRFSGSGSGTSYSLTISSMEAEDAATYFCQQWRSDLPTFGAGTKLELKR
3120 pM | 0.000132 s⁻¹ | 42300 M⁻¹ s⁻¹ | Mutation 1-30 (antibody, V domains shown) VH: EVQLQQPGPELVKPGASVKMSCKASGYTFTSTVIHWVRQKPGQGLEWIGYMNPYNDGLKYNEKFIGKAILTSDKSSSTAYMQLSSLTSEDSAVYYCTREGLFYVMDYWGQGTSVTVSS VL: QIVLTQSPAIMSASPGEKVTMTCSATSSLSYMHWYQQKSGTSPKRWIYDTSKLASGVPVRFSGSGSGTSYSLTISSMEAEDAATYFCQYWRSDLPTFGAGTKLELKR
532 pM | 0.000209 s⁻¹ | 393000 M⁻¹ s⁻¹ | Mutation 1-42 (antibody, V domains shown) VH: EVQLQQPGPELVKPGASVKMSCKASGYTFTSTVIHWVRQKPGQGLEWIGYMNPYNDGIKYNEKFIGKAILTSDKSSSTAYMQLSSLTSEDSAVYYCTREGLFYVFDYWGQGTSVTVSS VL: QIVLTQSPAIMSASPGEKVTMTCSATSSLSYMHWYQQKSGTSPKRWIYDTSKLASGVPVRFSGSGSGTSYSLTISSMEAEDAATYFCQQWRSDLPTFGAGTKLELKR
4550 pM | 0.000186 s⁻¹ | 40900 M⁻¹ s⁻¹ | Mutation 1-39 (antibody, V domains shown) VH: EVQLQQPGPELVKPGASVKMSCKASGYTFTSTVIHWVRQKPGQGLEWIGYMNPYNDGIKYNEKFIGKAILTSDKSSSTAYMQLSSLTSEDSAVYYCTREGLFYVFDYWGQGTSVTVSS VL: QIVLTQSPAIMSASPGEKVTMTCSATSSLSYMHWYQQKSGTSPKRWIYDSSKLASGVPVRFSGSGSGTSYSLTISSMEAEDAATYFCQQWRSDLPTFGAGTKLELKR
3630 pM | 0.000145 s⁻¹ | 39900 M⁻¹ s⁻¹ | Mutation 1-37 (antibody, V domains shown) VH: EVQLQQPGPELVKPGASVKMSCKASGYTFTSSVIHWVRQKPGQGLEWIGYMNPYNDGIKYNEKFIGKAILTSDKSSSTAYMQLSSLTSEDSAVYYCTREGLFYVFDYWGQGTSVTVSS VL: QIVLTQSPAIMSASPGEKVTMTCSATSSVSYMHWYQQKSGTSPKRWIYDTSKLASGVPVRFSGSGSGTSYSLTISSMEAEDAATYFCQYWRSDLPTFGAGTKLELKR
2890 pM | 0.000112 s⁻¹ | 38700 M⁻¹ s⁻¹ | Mutation 1-34 (antibody, V domains shown) VH: EVQLQQPGPELVKPGASVKMSCKASGYTFTSSVIHWVRQKPGQGLEWIGYMNPYNDGIKYNEKFIGKAILTSDKSSSTAYMQLSSLTSEDSAVYYCTREGLFYVFDYWGQGTSVTVSS VL: QIVLTQSPAIMSASPGEKVTMTCSATSSLSYMHWYQQKSGTSPKRWIYDTSKLASGVPVRFSGSGSGTSYSLTISSMEAEDAATYFCQYWRSDLPTFGAGTKLELKR
591 pM | 0.000259 s⁻¹ | 438000 M⁻¹ s⁻¹ | Mutation 1-28 (antibody, V domains shown) VH: EVQLQQPGPELVKPGASVKMSCKASGYTFTSSVIHWVRQKPGQGLEWIGYMNPYNDGIKYNEKFIGKAILTSDKSSSTAYMQLSSLTSEDSAVYYCTKEGLFYVMDYWGQGTSVTVSS VL: QIVLTQSPAIMSASPGEKVTMTCSATSSVSYMHWYQQKSGTSPKRWIYDTSKLASGVPVRFSGSGSGTSYSLTISSMEAEDAATYFCQYWRSDLPTFGAGTKLELKR
